According to patent US20130096058A1:

Target: Murine CD40L on the Th2 cell line D10.G4.1 (mouse) (UniProt P27548)
Assay: cell-based or functional assay

Murine CD40L on the Th2 cell line D10.G4.1 (mouse), sequence (P27548 whole entry): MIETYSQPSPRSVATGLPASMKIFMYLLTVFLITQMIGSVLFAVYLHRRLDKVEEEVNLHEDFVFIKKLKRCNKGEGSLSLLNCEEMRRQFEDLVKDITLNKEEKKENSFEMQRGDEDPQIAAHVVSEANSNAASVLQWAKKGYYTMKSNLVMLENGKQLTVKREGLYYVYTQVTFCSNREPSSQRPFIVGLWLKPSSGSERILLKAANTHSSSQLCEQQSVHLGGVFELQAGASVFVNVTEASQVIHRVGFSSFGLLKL

- IC50 of inhibition of MuCD40L-induced CD86 expression on B cells: 100 µM
Substance: MR1 antibody
